Measurements taken from publication PMC11470125.

Molecular target: T1, LbuCas13a (Leptotrichia buwadei? (printed only as …, UniProt C7NBY4 1-1159))
T1 sequence: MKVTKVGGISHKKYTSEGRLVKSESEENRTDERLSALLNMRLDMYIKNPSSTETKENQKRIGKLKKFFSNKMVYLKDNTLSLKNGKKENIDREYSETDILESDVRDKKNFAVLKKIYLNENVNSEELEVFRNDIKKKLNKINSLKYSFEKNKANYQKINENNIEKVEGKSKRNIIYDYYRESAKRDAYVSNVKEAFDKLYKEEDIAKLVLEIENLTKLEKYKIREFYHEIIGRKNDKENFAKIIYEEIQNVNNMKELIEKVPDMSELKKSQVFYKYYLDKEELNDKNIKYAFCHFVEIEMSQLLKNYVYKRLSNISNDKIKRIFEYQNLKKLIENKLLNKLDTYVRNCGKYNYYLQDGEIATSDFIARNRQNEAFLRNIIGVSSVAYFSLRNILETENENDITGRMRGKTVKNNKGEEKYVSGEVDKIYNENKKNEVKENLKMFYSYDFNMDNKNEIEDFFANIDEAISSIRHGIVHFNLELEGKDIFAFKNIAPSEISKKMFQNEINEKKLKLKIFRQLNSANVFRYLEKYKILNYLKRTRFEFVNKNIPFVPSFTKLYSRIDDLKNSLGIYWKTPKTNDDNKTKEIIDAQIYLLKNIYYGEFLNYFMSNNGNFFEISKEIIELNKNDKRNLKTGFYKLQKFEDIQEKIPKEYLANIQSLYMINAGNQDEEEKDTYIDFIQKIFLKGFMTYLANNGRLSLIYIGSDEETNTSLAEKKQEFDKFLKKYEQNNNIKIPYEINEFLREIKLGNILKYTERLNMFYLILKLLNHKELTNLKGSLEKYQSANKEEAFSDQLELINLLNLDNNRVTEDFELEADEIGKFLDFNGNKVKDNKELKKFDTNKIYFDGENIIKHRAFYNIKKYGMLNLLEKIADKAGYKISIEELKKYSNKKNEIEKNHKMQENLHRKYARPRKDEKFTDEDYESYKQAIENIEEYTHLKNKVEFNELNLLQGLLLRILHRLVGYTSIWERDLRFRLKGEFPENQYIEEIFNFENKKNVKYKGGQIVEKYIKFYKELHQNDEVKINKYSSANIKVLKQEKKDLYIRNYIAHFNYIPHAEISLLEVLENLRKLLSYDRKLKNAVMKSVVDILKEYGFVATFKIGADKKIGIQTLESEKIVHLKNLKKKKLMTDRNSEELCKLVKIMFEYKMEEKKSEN
Experiment: competition

B1: Cas13a crRNA with scrambled ssDNA, unlabelled competitor (mixed)
RNA: GAUUUAGACCACCCCAAAAAUGAAGGGGACUAAAACUGGGUGUUUGACAAGUUGUAUUGCAAUC
DNA: TCCACATCATCACTATTAACAAGGAACACTCCGAGGGT
binding result: no binding
